Assay results: US9221867B2, “Method for transporting a compound across the blood-brain barrier” (Angiochem Inc., priority 2003, dated 2015)

Experiments:
[1] = tested on: bovine brain capillary endothelial cells (BBCECs); experiment: Transcytosis of 125I-proteins across BBCEC monolayers (in vitro blood-brain barrier model); conditions: for Transcytosis: across in vitro BBB model; for Ratios Aprotinin/Protein / Ratios (x-fold), 125I-proteins transcytosis across BBCEC monolayers: aprotinin transcytosis divided by that of the named protein; for Ratios (x-fold), 125I-proteins transcytosis across BBCEC monolayers: 250 nM
Description: The model consists of a co-culture of bovine brain capillary endothelial cells and rat glial cells.
The in vitro model of BBB was established by using a co-culture of BBCECs and astrocytes. Prior to cell culture, plate inserts (Millicell-PC 3.0 μM; 30-mm diameter) were coated on the upper side with rat tail collagen. They were then set in six-well microplates containing the astrocytes and BBCECs were plated on the upper side of the filters in 2 mL of co-culture medium. This BBCEC medium was changed three times a week. Under these conditions, differentiated BBCECs formed a confluent monolayer 7 days later. Experiments were performed between 5 and 7 days after confluence was reached. The permeability coefficient for sucrose was measured to verify the endothelial permeability.
Briefly, after removing the meninges, the brain tissue was forced gently through a 82 μm nylon sieve. Astrocytes were plated on six-well microplates at a concentration of 1.2×10^5 cells/mL in 2 mL of optimal culture medium (DMEM) supplemented with 10% heat inactivated fetal bovine serum. The medium was changed twice a week.
Bovine brain capillary endothelial cells (BBCECs) were obtained from Cellial Technologies. The cells were cultured in the presence of DMEM medium supplemented with 10% (v/v) horse serum and 10% heat-inactivated calf serum, 2 mM of glutamine, 50 μg/mL of gentamycin, and 1 ng/mL of basic fibroblast growth factor, added every other day.
One insert covered with BBCECs was set into a six-well microplate with 2 mL of Ringer-Hepes and was pre-incubated for 2 h at 37° C. [^125I]-aprotinin, [^125I]-p97, [^125I]-ceruloplasmin or [^125I]-transferrin (250 nM final concentration) was added to the upper side of the filter covered with cells. At various times, the insert was transferred to another well to avoid a possible reendocytosis of [^125I]-proteins by the abluminal side of the BBCECs. At the end of experiment, [^125I]-proteins were assessed in 500 μL of the lower chamber of well by TCA precipitation.
Aprotinin, p97 and bovine holo-transferrin were iodinated with standard procedures using iodo-beads from Sigma™. Bovine holo-transferrin was diluted in 0.1M phosphate buffer, pH 6.5 (PB). P97 obtained from Synapse Technologies in neutralized citrate at pH 7.0 was dialyzed against this PB. Two iodo-beads were used for each protein. These beads were washed twice with 3 mL of PB on a Whatman™ filter and resuspended in 60 μL of PB. ^125I (1 mCi) from Amersham-Pharmacia biotech was added to the bead suspension for 5 minutes at room temperature. The iodination for each protein was initiated by the addition of 100 μg (80-100 μL).

[2] = tested on: endothelial cell monolayers (in vitro blood-brain barrier model); experiment: Permeability coefficient (Pe) of proteins in the in vitro blood-brain barrier model
Description: The permeability coefficient (Pe) was calculated as:
At the end of the experiments, amounts of the radiotracers in the basolateral compartment were measured in a liquid scintillation counter. The permeability coefficient (Pe) for sucrose was calculated as previously described (Dehouck, M. P., Jolliet-Riant, P., Brée, F., Fruchart, J. C., Cecchelli, R., Tillement, J. P., J. Neurochem. 58:1790-1797, 1992) using filters coated or non-coated with EC.
The transport of Angio-pep1 from the apical-to-basolateral side of inserts covered with or without endothelial cell monolayers was measured. The results are expressed as the clearance of Angio-pep1 as a function of time. The slopes correspond to the permeability of the peptide through the filter alone (Psf) and to the total permeability of the endothelial cell monolayers (Pst).
The permeability coefficients for Angio-pep1, aprotinin, leptin and transferrin were determined using the in vitro blood-brain barrier model. The permeability coefficient (Pe) was calculated as described above.

Row | Molecule | Transcytosis [1] [pmol/h/cm^2] | Ratios Aprotinin/Protein [1] | effect on aprotinin transcytosis ([1]; [125I]-aprotinin 250 nM with or without RAP, 37° C., FIG. 14) | Ratios (x-fold), 125I-proteins transcytosis across BBCEC monolayers [1] [x-fold] | Ratios (permeability coefficients) ([2]; Pe of Angio-pep1 divided by Pe of the named protein) | Permeability coefficient (Pe) ([2]; in vitro blood-brain barrier model) [×10⁻⁶ cm/s]
1 | Lactoferrin: comparison protein in transcytosis experiment (protein, UniProt P02788 20-710, looked up) Lactotransferrin: GRRRSVQWCAVSQPEATKCFQWQRNMRKVRGPPVSCIKRDSPIQCIQAIAENRADAVTLDGGFIYEAGLAPYKLRPVAAEVYGTERQPRTHYYAVAVVKKGGSFQLNELQGLKSCHTGLRRTAGWNVPIGTLRPFLNWTGPPEPIEAAVARFFSASCVPGADKGQFPNLCRLCAGTGENKCAFSSQEPYFSYSGAFKCLRDGAGDVAFIRESTVFEDLSDEAERDEYELLCPDNTRKPVDKFKDCHLARVPSHAVVARSVNGKEDAIWNLLRQAQEKFGKDKSPKFQLFGSPSGQKDLLFKDSAIGFSRVPPRIDSGLYLGSGYFTAIQNLRKSEEEVAARRARVVWCAVGEQELRKCNQWSGLSEGSVTCSSASTTEDCIALVLKGEADAMSLDGGYVYTAGKCGLVPVLAENYKSQQSSDPDPNCVDRPVEGYLAVAVVRRSDTSLTWNSVKGKKSCHTAVDRTAGWNIPMGLLFNQTGSCKFDEYFSQSCAPGSDPRSNLCALCIGDEQGENKCVPNSNERYYGYTGAFRCLAENAGDVAFVKDVTVLQNTDGNNNEAWAKDLKLADFALLCLDGKRKPVTEARSCHLAMAPNHAVVSRMDKVERLKQVLLHQQAKFGRNGSDCPDKFCLFQSETKNLLFNDNTECLARLHGKTTYEKYLGPQYVAGITNLKKCSTSPLLEACEFLRK | 0.05 | 50 |  |  |  | 
2 | receptor-associated protein (RAP): LRP antagonist, receptor-associated protein (protein, UniProt P30533 35-357, looked up) Alpha-2-macroglobulin …: YSREKNQPKPSPKRESGEEFRMEKLNQLWEKAQRLHLPPVRLAELHADLKIQERDELAWKKLKLDGLDEDGEKEARLIRNLNVILAKYGLDGKKDARQVTSNSLSGTQEDGLDDPRLEKLWHKAKTSGKFSGEELDKLWREFLHHKEKVHEYNVLLETLSRTEEIHENVISPSDLSDIKGSVLHSRHTELKEKLRSINQGLDRLRRVSHQGYSTEAEFEEPRVIDLWDLAQSANLTDKELEAFREELKHFEAKIEKHNHYQKQLEIAHEKLRHAESVGDGERVSRSREKHALLEGRTKELGYTVKKHLQDLSGRISRARHNEL |  |  | inhibition |  |  | 
3 | Melanotransferrin (p97): comparison protein, p97 obtained from Synapse Technologies (protein, UniProt P08582 20-709, looked up) Melanotransferrin: GMEVRWCATSDPEQHKCGNMSEAFREAGIQPSLLCVRGTSADHCVQLIAAQEADAITLDGGAIYEAGKEHGLKPVVGEVYDQEVGTSYYAVAVVRRSSHVTIDTLKGVKSCHTGINRTVGWNVPVGYLVESGRLSVMGCDVLKAVSDYFGGSCVPGAGETSYSESLCRLCRGDSSGEGVCDKSPLERYYDYSGAFRCLAEGAGDVAFVKHSTVLENTDGKTLPSWGQALLSQDFELLCRDGSRADVTEWRQCHLARVPAHAVVVRADTDGGLIFRLLNEGQRLFSHEGSSFQMFSSEAYGQKDLLFKDSTSELVPIATQTYEAWLGHEYLHAMKGLLCDPNRLPPYLRWCVLSTPEIQKCGDMAVAFRRQRLKPEIQCVSAKSPQHCMERIQAEQVDAVTLSGEDIYTAGKTYGLVPAAGEHYAPEDSSNSYYVVAVVRRDSSHAFTLDELRGKRSCHAGFGSPAGWDVPVGALIQRGFIRPKDCDVLTAVSEFFNASCVPVNNPKNYPSSLCALCVGDEQGRNKCVGNSQERYYGYRGAFRCLVENAGDVAFVRHTTVFDNTNGHNSEPWAAELRSEDYELLCPNGARAEVSQFAACNLAQIPPHAVMVRPDTNIFTVYGLLDKAQDLFGDDHNKNGFKMFDSSNYHGQDLLFKDATVRAVPVGEKTTYRGWLGLDYVAALEGMSSQQC | 0.28 | 10 |  | 8.2 |  | 
4 | ceruloplasmin: comparison protein in transcytosis experiments (protein, UniProt P00450 20-1065, looked up) Ceruloplasmin: KEKHYYIGIIETTWDYASDHGEKKLISVDTEHSNIYLQNGPDRIGRLYKKALYLQYTDETFRTTIEKPVWLGFLGPIIKAETGDKVYVHLKNLASRPYTFHSHGITYYKEHEGAIYPDNTTDFQRADDKVYPGEQYTYMLLATEEQSPGEGDGNCVTRIYHSHIDAPKDIASGLIGPLIICKKDSLDKEKEKHIDREFVVMFSVVDENFSWYLEDNIKTYCSEPEKVDKDNEDFQESNRMYSVNGYTFGSLPGLSMCAEDRVKWYLFGMGNEVDVHAAFFHGQALTNKNYRIDTINLFPATLFDAYMVAQNPGEWMLSCQNLNHLKAGLQAFFQVQECNKSSSKDNIRGKHVRHYYIAAEEIIWNYAPSGIDIFTKENLTAPGSDSAVFFEQGTTRIGGSYKKLVYREYTDASFTNRKERGPEEEHLGILGPVIWAEVGDTIRVTFHNKGAYPLSIEPIGVRFNKNNEGTYYSPNYNPQSRSVPPSASHVAPTETFTYEWTVPKEVGPTNADPVCLAKMYYSAVEPTKDIFTGLIGPMKICKKGSLHANGRQKDVDKEFYLFPTVFDENESLLLEDNIRMFTTAPDQVDKEDEDFQESNKMHSMNGFMYGNQPGLTMCKGDSVVWYLFSAGNEADVHGIYFSGNTYLWRGERRDTANLFPQTSLTLHMWPDTEGTFNVECLTTDHYTGGMKQKYTVNQCRRQSEDSTFYLGERTYYIAAVEVEWDYSPQREWEKELHHLQEQNVSNAFLDKGEFYIGSKYKKVVYRQYTDSTFRVPVERKAEEEHLGILGPQLHADVGDKVKIIFKNMATRPYSIHAHGVQTESSTVTPTLPGETLTYVWKIPERSGAGTEDSACIPWAYYSTVDQVKDLYSGLIGPLIVCRRPYLKVFNPRRKLEFALLFLVFDENESWYLDDNIKTYSDHPEKVNKDDEEFIESNKMHAINGRMFGNLQGLTMHVGDEVNWYLMGMGNEIDLHTVHFHGHSFQYKHRGVYSSDVFDIFPGTYQTLEMFPRTPGIWLLHCHVTDHIHAGMETTYTVLQNEDTKSG |  |  |  | 44.0 |  | 
5 | Transferrin: comparison protein, bovine holo-transferrin (protein, UniProt Q29443 20-704, looked up, holo (iron-loaded)) Serotransferrin: DPERTVRWCTISTHEANKCASFRENVLRILESGPFVSCVKKTSHMDCIKAISNNEADAVTLDGGLVYEAGLKPNNLKPVVAEFHGTKDNPQTHYYAVAVVKKDTDFKLNELRGKKSCHTGLGRSAGWNIPMAKLYKELPDPQESIQRAAANFFSASCVPCADQSSFPKLCQLCAGKGTDKCACSNHEPYFGYSGAFKCLMEGAGDVAFVKHSTVFDNLPNPEDRKNYELLCGDNTRKSVDDYQECYLAMVPSHAVVARTVGGKEDVIWELLNHAQEHFGKDKPDNFQLFQSPHGKDLLFKDSADGFLKIPSKMDFELYLGYEYVTALQNLRESKPPDSSKDECMVKWCAIGHQERTKCDRWSGFSGGAIECETAENTEECIAKIMKGEADAMSLDGGYLYIAGKCGLVPVLAENYKTEGESCKNTPEKGYLAVAVVKTSDANINWNNLKDKKSCHTAVDRTAGWNIPMGLLYSKINNCKFDEFFSAGCAPGSPRNSSLCALCIGSEKGTGKECVPNSNERYYGYTGAFRCLVEKGDVAFVKDQTVIQNTDGNNNEAWAKNLKKENFEVLCKDGTRKPVTDAENCHLARGPNHAVVSRKDKATCVEKILNKQQDDFGKSVTDCTSNFCLFQSNSKDLLFRDDTKCLASIAKKTYDSYLGDDYVRAMTNLRQCSTSKLLEACTFHKP | 0.14 | 19 |  | 11.6 | 210 | 0.095
